What all share (test): cell-based or functional assay
In test [1] the target is K^b-CD28-ζ receptor pulsed with ovalbumin 257-264 peptide (SIINFEKL) (mouse) (UniProt P31041).
Test [2] deals with K^b-CD28[L→G]-ζ receptor pulsed with ovalbumin 257-264 peptide (SIINFEKL) (mouse) (UniProt P31041).
Test [3] addresses K^b-CD28[L→G]-ζ receptor (mouse) (UniProt P31041).

In test [1], “OT-1 TCR (rearranged ovalbumin 257-264/H-2K^b restricted TCR)” showed an in vivo depletion of Vα2+ OT-1 cells from the LN, peptide-pulsed against unpulsed RMTC of 93% and an in vivo depletion of Vα2+ OT-1 cells from the spleen, peptide-pulsed against unpulsed RMTC of 96%. For the same substance, in test [2], the in vivo depletion of Vα2+ OT-1 cells from the LN, peptide-pulsed against unpulsed RMTC was found to be 98%; the in vivo depletion of Vα2+ OT-1 cells from the spleen, peptide-pulsed against unpulsed RMTC is 99%; the lysis of OT-1 target cells, peptide concentration for equivalent lysis against K^b-CD28-ζ RMTC (fold lower peptide concentration) fell in the range of 5 to 20; the specific lysis of OT-1 T cells, RMTC dose for equivalent lysis against K^b-CD28-ζ RMTC (fold fewer RMTC) fell in the range of 3 to 9.
As to “clone AF6-88.5 anti-mouse H-2K^b (antibody)”, in test [3], the IFN-γ release by RMTC is greater than 3.5 fold.

(Values after patent publication US20070066802A1.)
